Kd data for 1 molecule are collected here from US9650447 (dated 2017).

In test [1] the target is T1, EBV gp350 (Epstein-Barr virus, UniProt P03200).
T1 chain: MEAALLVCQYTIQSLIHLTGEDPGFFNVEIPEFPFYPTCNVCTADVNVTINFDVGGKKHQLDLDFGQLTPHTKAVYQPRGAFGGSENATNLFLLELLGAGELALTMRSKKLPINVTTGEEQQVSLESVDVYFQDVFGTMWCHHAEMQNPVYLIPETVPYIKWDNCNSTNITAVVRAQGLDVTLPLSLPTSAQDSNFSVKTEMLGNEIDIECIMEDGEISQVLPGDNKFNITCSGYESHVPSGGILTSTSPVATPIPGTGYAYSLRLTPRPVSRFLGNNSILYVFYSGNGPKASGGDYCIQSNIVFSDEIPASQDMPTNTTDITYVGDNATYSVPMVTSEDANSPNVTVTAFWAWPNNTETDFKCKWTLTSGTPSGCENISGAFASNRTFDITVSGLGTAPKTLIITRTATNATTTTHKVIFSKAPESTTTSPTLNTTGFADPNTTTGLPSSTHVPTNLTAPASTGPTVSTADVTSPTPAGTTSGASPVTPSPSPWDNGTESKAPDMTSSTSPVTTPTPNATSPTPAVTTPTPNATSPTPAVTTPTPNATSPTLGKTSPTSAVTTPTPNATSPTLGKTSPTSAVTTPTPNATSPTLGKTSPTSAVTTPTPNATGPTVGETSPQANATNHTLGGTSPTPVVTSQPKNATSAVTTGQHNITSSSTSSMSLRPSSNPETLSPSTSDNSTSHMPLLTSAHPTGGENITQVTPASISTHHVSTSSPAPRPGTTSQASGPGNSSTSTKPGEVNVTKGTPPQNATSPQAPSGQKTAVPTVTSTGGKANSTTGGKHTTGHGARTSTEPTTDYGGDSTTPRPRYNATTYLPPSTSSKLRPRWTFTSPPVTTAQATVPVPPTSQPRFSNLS
Nature of the test: ITC.

Test [2] concerns the target T2, C3d (human, UniProt P01024). Kind of test: ITC, two-site fit, weak site. (In general: In ITC the heat of successive injections is recorded.)
For test [3], the target named is T2, C3d. Nature of the test: ITC, two-site fit, tight site.
In test [4] the target is T1, EBV gp350. Kind of test: other (NMR titration, upper limit).
Test [5] concerns the target T2, C3d. Kind of test: other (NMR titration, tight site, upper limit).
The target of test [6] is T2, C3d. Kind of test: other (NMR titration, weak site).

One may read the Kd as the free concentration of one partner at which half of the binding sites on the other are occupied at equilibrium, for simple one-to-one binding. A lower Kd goes with a tighter complex.

T2 sequence (P01024 1002-1303): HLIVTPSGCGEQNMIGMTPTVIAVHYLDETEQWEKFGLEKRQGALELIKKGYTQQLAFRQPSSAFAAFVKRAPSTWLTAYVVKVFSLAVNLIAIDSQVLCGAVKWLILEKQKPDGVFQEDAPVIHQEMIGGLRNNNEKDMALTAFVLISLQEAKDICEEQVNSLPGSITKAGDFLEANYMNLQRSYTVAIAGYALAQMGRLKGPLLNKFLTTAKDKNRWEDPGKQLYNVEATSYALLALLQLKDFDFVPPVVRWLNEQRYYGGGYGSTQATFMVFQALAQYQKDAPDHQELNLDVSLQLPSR

B1: human CR2 SCR1-2 (protein)
chain: ISCGSPPPILNGRISYYSTPIAVGTVIRYSCSGTFRLIGEKSLLCITKDKVDGTWDKPAPKCEYFNKYSSCPEPIVPGGYKIRGSTPYRHGDSVTFACKTNFSMNGNKSVWCQANNMWGPTRLPTCVS
On to B1, for which the Kd with EBV gp350 [1] is 0.014 µM; in the test with C3d [2], 160 µM; with C3d [3], 0.13 µM; with EBV gp350 [4] it was under 60 µM; with C3d [5] it was under 45 µM; in the test with C3d [6], 130 µM.
